Counter-ions that a name gives are not always drawn.
Key:
[1] = biological target: T1, MT-PykA-H (M.tb H37Rv PykA) (Mycobacterium tuberculosis, UniProt P9WKE5)
T1 construct: gene pyk

[2] = biological target: MT-H-Eno (M.tb H37Rv Enolase) (Mycobacterium tuberculosis, UniProt P9WNL1)
[3] = biological target: transferrin-biotin (human) (UniProt P02787); assay: pull-down
O=C[C@H](O)COP(=O)(O)O = assay: purified protein; settings: pH 8.5; 25.0 °C
[4] = tested on: NC(=O)c1ccc[n+]([C@@H]2O[C@H](COP(=O)(O)OP(=O)(O)OC[C@H]3O[C@@H](n4cnc5c(N)ncnc54)[C@H](O)[C@@H]3O)[C@@H](O)[C@H]2O)c1; assay: purified protein; settings: pH 8.5; 25.0 °C

T1 sequence (P9WKE5 whole entry, looked up): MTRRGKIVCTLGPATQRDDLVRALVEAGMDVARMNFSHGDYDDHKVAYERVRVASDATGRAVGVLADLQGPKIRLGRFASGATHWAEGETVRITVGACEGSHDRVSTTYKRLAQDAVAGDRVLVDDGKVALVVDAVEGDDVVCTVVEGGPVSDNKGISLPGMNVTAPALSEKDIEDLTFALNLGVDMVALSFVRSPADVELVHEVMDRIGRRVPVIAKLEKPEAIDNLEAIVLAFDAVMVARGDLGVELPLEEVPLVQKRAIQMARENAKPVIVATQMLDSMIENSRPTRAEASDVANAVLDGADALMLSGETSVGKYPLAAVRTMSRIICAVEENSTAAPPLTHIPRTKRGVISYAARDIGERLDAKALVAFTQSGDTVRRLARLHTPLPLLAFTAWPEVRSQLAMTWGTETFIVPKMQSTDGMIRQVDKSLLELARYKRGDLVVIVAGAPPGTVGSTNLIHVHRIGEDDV
MT-H-Eno (M.tb H37Rv Enolase), sequence (P9WNL1 whole entry, looked up): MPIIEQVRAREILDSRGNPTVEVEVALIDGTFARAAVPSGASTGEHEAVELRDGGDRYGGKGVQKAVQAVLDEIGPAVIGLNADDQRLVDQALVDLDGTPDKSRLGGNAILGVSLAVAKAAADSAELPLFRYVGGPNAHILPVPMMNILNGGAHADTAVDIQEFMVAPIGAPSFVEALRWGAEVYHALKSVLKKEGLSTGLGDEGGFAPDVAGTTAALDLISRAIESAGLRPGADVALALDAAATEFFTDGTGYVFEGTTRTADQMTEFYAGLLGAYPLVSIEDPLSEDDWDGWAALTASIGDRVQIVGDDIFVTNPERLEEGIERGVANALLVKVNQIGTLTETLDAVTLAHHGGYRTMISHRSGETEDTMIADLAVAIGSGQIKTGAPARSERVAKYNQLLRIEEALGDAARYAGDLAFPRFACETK
transferrin-biotin (human), sequence (P02787 20-698): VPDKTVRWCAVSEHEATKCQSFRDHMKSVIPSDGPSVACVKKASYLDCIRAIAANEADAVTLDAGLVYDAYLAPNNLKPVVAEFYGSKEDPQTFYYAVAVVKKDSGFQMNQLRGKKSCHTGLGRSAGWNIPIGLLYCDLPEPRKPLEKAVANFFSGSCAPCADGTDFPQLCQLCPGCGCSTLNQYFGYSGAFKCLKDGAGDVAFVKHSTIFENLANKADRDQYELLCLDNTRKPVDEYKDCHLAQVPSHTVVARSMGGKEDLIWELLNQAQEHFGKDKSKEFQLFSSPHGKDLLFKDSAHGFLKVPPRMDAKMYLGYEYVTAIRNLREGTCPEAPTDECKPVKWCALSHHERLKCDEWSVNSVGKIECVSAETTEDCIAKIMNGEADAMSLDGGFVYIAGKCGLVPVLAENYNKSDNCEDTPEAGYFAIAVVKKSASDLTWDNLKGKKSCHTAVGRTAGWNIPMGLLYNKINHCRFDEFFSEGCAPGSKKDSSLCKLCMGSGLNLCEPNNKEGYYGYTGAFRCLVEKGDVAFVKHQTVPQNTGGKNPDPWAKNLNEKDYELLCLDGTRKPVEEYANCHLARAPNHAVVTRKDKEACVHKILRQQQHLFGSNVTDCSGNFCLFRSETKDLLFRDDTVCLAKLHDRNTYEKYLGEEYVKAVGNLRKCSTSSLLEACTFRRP

For C=C(OP(=O)(O)O)C(=O)O [sodium phosphoenol pyruvate], the “lactate dehydrogenase-coupled NADH oxidation at 340 nm” value [1] was “buffer lacking the specific substrate sodium phosphoenol pyruvate”.

For O=C(O)[C@@H](CO)OP(=O)(O)O [D (+)-2 phosphoglyceric acid sodium salt], the “absorbance increase at 240 nm” value [2] was “buffer lacking the specific substrate 2-PG”.

In the case of “EC-H-GAPDH: recombinant M.tb H37Rv GAPDH with an N-terminal His tag, expressed in E. coli (from UniProt P9WN83 1-339) (enzyme)”, the percent decrease of binding against MT-GAPDH-H (densitometry) [3] is reported as 70%.

Work on “MT-GAPDH-H (M.tb rGAPDH) (Mycobacterium tuberculosis H37Rv)” yielded a Km (O=C[C@H](O)COP(=O)(O)O) of 169.6 ± 10.53 µM, a kcat (O=C[C@H](O)COP(=O)(O)O) of 0.00332 ± 0.0002 s⁻¹ and a Km [4] of 101.2 ± 8.9 µM.

Source: paper PMC4982137, “Mycobacterium tuberculosis H37Ra: a surrogate for the expression of conserved, multimeric proteins of M.tb H37Rv” (Microbial Cell Factories, 2016)
